The values that follow are results of earlier work, collected in article PMC6340931.

The target in data set [1] is Sortilin-derived propeptide (SDP) Gln1-Arg44 (Homo sapiens) (UniProt Q99523).
Data set [2] concerns the target Neurotensin (Homo sapiens) (UniProt P30990).
The target in data set [3] is Sortilin-derived propeptide (SDP) Gln1-Arg44 (Homo sapiens) (UniProt Q99523). The source holds these as a separate data set.

Like-named read-outs stand apart in the source and are kept apart here.

The Kd is a measure of binding affinity in units of concentration. Take TREK-1 (from UniProt O95069): the Kd in data set [1] was 5 nM.

With Sortilin (from UniProt Q99523), in data set [2], the Kd was 0.3 nM. As to Sortilin mature (from UniProt Q99523), the Kd in data set [3] is 5 nM.
